# Reference: patent publication US20240011031, “COMPOSITIONS COMPRISING A NUCLEASE AND USES THEREOF” (Arbor Biotechnologies, Inc., published 2024)
# T1: Effector SEQ ID NO: 2 (CLUST.200916 nuclease)
# T1 chain: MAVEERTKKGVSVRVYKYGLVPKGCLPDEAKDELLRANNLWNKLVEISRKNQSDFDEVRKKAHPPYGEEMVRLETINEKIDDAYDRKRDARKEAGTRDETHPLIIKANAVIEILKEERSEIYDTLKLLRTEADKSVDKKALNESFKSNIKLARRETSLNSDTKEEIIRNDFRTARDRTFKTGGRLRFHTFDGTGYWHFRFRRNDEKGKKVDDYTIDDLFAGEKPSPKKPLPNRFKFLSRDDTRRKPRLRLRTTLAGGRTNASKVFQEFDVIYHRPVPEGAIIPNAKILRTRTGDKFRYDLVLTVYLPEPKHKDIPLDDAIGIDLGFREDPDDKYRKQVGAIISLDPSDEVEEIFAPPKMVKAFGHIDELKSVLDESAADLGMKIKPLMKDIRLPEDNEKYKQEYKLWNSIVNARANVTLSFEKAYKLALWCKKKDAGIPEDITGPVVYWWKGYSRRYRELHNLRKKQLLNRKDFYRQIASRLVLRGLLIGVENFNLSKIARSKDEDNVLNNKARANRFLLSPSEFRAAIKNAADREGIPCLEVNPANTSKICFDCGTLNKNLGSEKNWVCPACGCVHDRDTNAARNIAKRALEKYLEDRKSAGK
# B1: pre-crRNA GFP Target 2 ; GFP Target 2 (ssRNA ; dsDNA)
# RNA: GGUAUAACGACCCUGCGAAGUGGGGUGUAACUUCGACAAAAACUGGUUACCAAAUGCAGCCAAAUGAGUAUAACGACCCUGCGAAGUGGGGUGUAACUUCGACCUAACCCCUCUCUAAACGGAGGGGUUU
# DNA 1: AAAAACTGGTTACCAAATGCAGCCAAATGA
# DNA 2: TCATTTGGCTGCATTTGGTAACCAGTTTTT
# B2: pre-crRNA GFP Target 5 ; GFP Target 5 (ssRNA ; dsDNA)
# RNA: GGUAUAACGACCCUGCGAAGUGGGGUGUAACUUCGACUGACGGCAUUGACGGAAGGUGCAAAACUGUGUAUAACGACCCUGCGAAGUGGGGUGUAACUUCGACCUAACCCCUCUCUAAACGGAGGGGUUU
# DNA 1: TGACGGCATTGACGGAAGGTGCAAAACTGT
# DNA 2: ACAGTTTTGCACCTTCCGTCAATGCCGTCA
# B3: pre-crRNA GFP Target 1 ; GFP Target 1 (ssRNA ; dsDNA)
# RNA: GGUAUAACGACCCUGCGAAGUGGGGUGUAACUUCGACAGAGCGUACCAUCAGCUUCGAAGGCGACGGGUAUAACGACCCUGCGAAGUGGGGUGUAACUUCGACCUAACCCCUCUCUAAACGGAGGGGUUU
# DNA 1: AGAGCGTACCATCAGCTTCGAAGGCGACGG
# DNA 2: CCGTCGCCTTCGAAGCTGATGGTACGCTCT
# B4: pre-crRNA GFP Target 3 ; GFP Target 3 (ssRNA ; dsDNA)
# RNA: GGUAUAACGACCCUGCGAAGUGGGGUGUAACUUCGACUAGUGCAGAUGUAUUUCGCUUUAAUGGUACGUAUAACGACCCUGCGAAGUGGGGUGUAACUUCGACCUAACCCCUCUCUAAACGGAGGGGUUU
# DNA 1: TAGTGCAGATGTATTTCGCTTTAATGGTAC
# DNA 2: GTACCATTAAAGCGAAATACATCTGCACTA
# B5: pre-crRNA GFP Target 4 ; GFP Target 4 (ssRNA ; dsDNA)
# RNA: GGUAUAACGACCCUGCGAAGUGGGGUGUAACUUCGACUGAUGUGGCUCGGGUACUUGGCGAAACACUGUAUAACGACCCUGCGAAGUGGGGUGUAACUUCGACCUAACCCCUCUCUAAACGGAGGGGUUU
# DNA 1: TGATGTGGCTCGGGTACTTGGCGAAACACT
# DNA 2: AGTGTTTCGCCAAGTACCCGAGCCACATCA
# Experiments:
# [1] = target: T1, Effector SEQ ID NO: 2 (CLUST.200916 …); assay: GFP fluorescence depletion in IVTT, 37 C, 12 h; PAM 5'-ACCG-3'
# Excerpt: (§1) In this assay, an active CRISPR system designed to target GFP binds and cleaves the double-stranded DNA region encoding GFP, resulting in depletion of GFP fluorescence. The FDA assay involves in vitro transcription and translation, allowing production of an RNP from a DNA template encoding a CLUST.200916 effector and a DNA template containing a pre-crRNA sequence under a T7 promoter with direct repeat (DR)-spacer-direct repeat (DR); the spacer targeted GFP. In the same one-pot reaction, GFP and RFP were also produced as both the target and the fluorescence reporter (FIG. SA). The target GFP plasmid sequence is set forth in SEQ ID NO: 205, and the fluorescence reporter RFP plasmid sequence is set forth in SEQ ID NO: 206. GFP and RFP fluorescence values were measured every 20 min at 37° C. for 12 hr, using a TECAN Infinite F Plex plate reader. Since RFP was not targeted, its fluorescence was not affected and was therefore used as an internal signal control.
# (§2) GFP signal was normalized to RFP signal, then the average fluorescence of three technical replicates was taken at each time point. GFP fluorescence depletion was then calculated by dividing the GFP signal of an effector incubated with a non-GFP targeting RNA guide (which instead targets a kanamycin resistance gene) by the GFP signal of an effector incubated with a GFP targeting RNA guide. […]
# [2] = target: T1, Effector SEQ ID NO: 2 (CLUST.200916 …); assay: GFP fluorescence depletion in IVTT, 37 C, 12 h; PAM 5'-TCCA-3'
# Excerpt: as §1, §2
# [3] = target: T1, Effector SEQ ID NO: 2 (CLUST.200916 …); assay: GFP fluorescence depletion in IVTT, 37 C, 12 h; PAM 5'-CCCA-3'
# Excerpt: as §1, §2
# [4] = target: T1, Effector SEQ ID NO: 2 (CLUST.200916 …); assay: GFP fluorescence depletion in IVTT, 37 C, 12 h; PAM 5'-CCCG-3'
# Excerpt: as §1, §2
# [5] = target: T1, Effector SEQ ID NO: 2 (CLUST.200916 …); assay: GFP fluorescence depletion in IVTT, 37 C, 12 h; PAM 5'-TCCT-3'
# Excerpt: as §1, §2
binder,measurement,setting,value
B1,activity,[1],> 1 depletion ratio
B2,activity,[2],> 1 depletion ratio
B3,activity,[3],> 1 depletion ratio
B4,activity,[4],> 1 depletion ratio
B5,activity,[5],> 1 depletion ratio
